Where two headings read alike, the source gives them in different places.
T1: CLL1 on CLL1-expressing cells (U937, HL60) (human, UniProt Q5QGZ9 1-265)
T1 sequence (looked up): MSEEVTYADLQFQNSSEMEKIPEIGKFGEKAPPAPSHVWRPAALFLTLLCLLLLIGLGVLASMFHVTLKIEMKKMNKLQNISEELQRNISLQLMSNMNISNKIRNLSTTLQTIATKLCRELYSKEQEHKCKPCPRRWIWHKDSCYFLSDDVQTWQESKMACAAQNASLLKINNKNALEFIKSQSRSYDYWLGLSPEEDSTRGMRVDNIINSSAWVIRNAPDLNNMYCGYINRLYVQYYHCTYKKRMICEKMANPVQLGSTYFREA

T2: B7H3 on B7H3-expressing cells (NCI-H358, NCI-H1048) (human, UniProt Q5ZPR3 29-534)
T2 sequence (looked up): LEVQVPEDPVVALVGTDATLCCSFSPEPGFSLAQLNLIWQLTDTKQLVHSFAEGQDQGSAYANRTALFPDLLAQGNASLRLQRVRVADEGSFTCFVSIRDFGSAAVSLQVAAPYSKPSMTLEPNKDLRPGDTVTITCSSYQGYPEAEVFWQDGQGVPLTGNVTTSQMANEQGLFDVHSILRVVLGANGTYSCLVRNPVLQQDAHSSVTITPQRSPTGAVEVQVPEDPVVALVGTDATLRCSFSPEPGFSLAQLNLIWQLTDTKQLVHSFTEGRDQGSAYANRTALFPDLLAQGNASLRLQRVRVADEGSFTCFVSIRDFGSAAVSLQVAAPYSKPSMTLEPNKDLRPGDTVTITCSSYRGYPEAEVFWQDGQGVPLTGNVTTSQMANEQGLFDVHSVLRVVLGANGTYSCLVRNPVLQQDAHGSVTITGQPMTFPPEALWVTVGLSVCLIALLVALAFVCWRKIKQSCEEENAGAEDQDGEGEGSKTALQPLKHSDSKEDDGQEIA

B1: ADC3-A (antibody, human IgG1, kappa, V domains shown)
VH: EVQLVQSGAEVKKPGASVKVSCKASGYSFTDYYMHWVRQAPGQGLEWIGRINPYAGAAFYSQNFKDRVTLTVDTSTSTAYLELSSLRSEDTAVYYCAIERGADLEGYAMDYWGQGTLVTVSS
VL: DIQMTQSPSSLSASVGDRVTITCRASQSVSTSSYNYMHWYQQKPGKPPKLLIKYASNLESGVPSRFSGSGSGTDFTLTISSLQPEDFATYYCQHSWEIPLTFGQGTKVEIKR
modifications: conjugator-linker-payload on cysteine thiols after TCEP reduction; positions not given
B2: ADC3-15 (antibody, human IgG1, kappa, V domains shown)
VH: B1 VH
VL: B1 VL
modifications: conjugator-linker-payload on cysteine thiols after TCEP reduction; positions not given
B3: ADC3-B (antibody, human IgG1, kappa, V domains shown)
VH: QVQLVQSGAEVKKPGSSVKVSCKASGYTFTNYVMHWVRQAPGQGLEWMGYINPYNDDVKYNEKFKGRVTITADESTSTAYMELSSLRSEDTAVYYCARWGYYGSPLYYFDYWGQGTLVTVSS
VL: EIVLTQSPATLSLSPGERATLSCRASSRLIYMHWYQQKPGQAPRPLIYATSNLASGIPARFSGSGSGTDFTLTISSLEPEDFAVYYCQQWNSNPPTFGQGTKVEIKR
modifications: conjugator-linker-payload on cysteine thiols after TCEP reduction; positions not given

Tests used:
Assay in all cases: cell-based or functional assay
[1] = target: T1, CLL1 on CLL1-expressing cells (U937, …)
[2] = target: T1, CLL1 on CLL1-expressing cells (U937, …); remark: listed apart in the source
[3] = target: T1, CLL1 on CLL1-expressing cells (U937, …); remark: listed apart in the source
[4] = target: T1, CLL1 on CLL1-expressing cells (U937, …); remark: listed apart in the source
[5] = target: T1, CLL1 on CLL1-expressing cells (U937, …); remark: listed apart in the source
[6] = target: T2, B7H3 on B7H3-expressing cells …

Binder | EC50 (nM) direct cellular killing, HL60 [1] | EC50 (nM) direct cellular killing, HL60 [2] | EC50 (nM) direct cellular killing, U937 [2] | EC50 (nM) direct cellular killing, HL60 [3] | EC50 (nM) direct cellular killing, U937 [3] | EC50 (nM) direct cellular killing, HL60 [4] | EC50 (nM) direct cellular killing, U937 [4] | EC50 (nM) direct cellular killing, HL60 [5] | EC50 (nM) direct cellular killing, NCI-H358 [6] | EC50 (nM) direct cellular killing, NCI-H1048 [6]
B1 | 4.8 nM | 6.3 nM | 0.8 nM | 1.4 nM | 0.7 nM | 10.9 nM | 0.7 nM | 6.5 nM | – | –
B2 | – | – | – | – | – | 6.5 nM | 0.3 nM | – | – | –
B3 | – | – | – | – | – | – | – | – | 0.1 nM | 0.2 nM

Reference: patent US20260256936A1, “BIOACTIVE CONJUGATES, PREPARATION METHOD AND USE THEREOF” (priority 2023, published 2026)
